In the supplement of paper PMC7125110:
± gives the standard error. For part of these data: Fewer inactive variants are shown than the library holds.

B1: glmS ribozyme (parent)
chain: AUAAAAGCGCCAGAACUACAGAAAUGUAGUUGACGAGGAGGAGGUUUAUCGAAUUUUCGGCGGAUGCCUCCAAA

What was measured:
Conditions in all cases: with glucosamine-6-phosphate
glucosamine-6-phosphate [1] = variants of: B1; experiment: kcat; higher = faster cleavage; RNA array
Procedure, shortened: (§1)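 Using a hybridised Cy3 probe at 37 °C, barcoded ribozyme variants transcribed in situ by E. coli RNA polymerase on sequenced MiSeq chips were monitored across tiles imaged over ~14 h. The flow contained glucosamine-6-phosphate from 40 μM to 10 mM in HEPES/KCl/Mg(OAc)2 buffer. Signals were normalised to baseline and to non-cleaving reference variants before per-tile medians were fit to one- or two-exponential decays to yield kobs. Weighted Michaelis–Menten fits across concentrations gave kcat and KM.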

glucosamine-6-phosphate [2] = variants of: B1; experiment: self-cleavage kobs at 10000 uM GlcN6P; higher = faster cleavage; RNA array
Procedure, shortened: as §1

glucosamine-6-phosphate [3] = variants of: B1; experiment: self-cleavage kobs at 640 uM GlcN6P; higher = faster cleavage; RNA array
Procedure, shortened: as §1

glucosamine-6-phosphate [4] = variants of: B1; experiment: self-cleavage kobs at 2500 uM GlcN6P; higher = faster cleavage; RNA array
Procedure, shortened: as §1

glucosamine-6-phosphate [5] = variants of: B1; experiment: KM; higher = weaker cofactor use; RNA array
Procedure, shortened: as §1

glucosamine-6-phosphate [6] = variants of: B1; experiment: self-cleavage kobs at 40 uM GlcN6P; higher = faster cleavage; RNA array
Procedure, shortened: as §1

glucosamine-6-phosphate [7] = variants of: B1; experiment: self-cleavage kobs at 160 uM GlcN6P; higher = faster cleavage; RNA array
Procedure, shortened: as §1

Variant | kcat (glucosamine-6-phosphate [1]) [s⁻¹] | self-cleavage kobs at 10000 uM GlcN6P (glucosamine-6-phosphate [2]) [s⁻¹] | self-cleavage kobs at 640 uM GlcN6P (glucosamine-6-phosphate [3]) [s⁻¹] | self-cleavage kobs at 2500 uM GlcN6P (glucosamine-6-phosphate [4]) [s⁻¹] | KM (glucosamine-6-phosphate [5]) [µM] | self-cleavage kobs at 40 uM GlcN6P (glucosamine-6-phosphate [6]) [s⁻¹] | self-cleavage kobs at 160 uM GlcN6P (glucosamine-6-phosphate [7]) [s⁻¹]
AUAAAAGCGCCGGAACUACAGAAAUGUAUUUGACGAGGAGGAGGUUUAUCGAAUUUUCGGCGGAUGGCUCCAAA [A12G G29U C67G] | 7.88e-05 ± 1.7e-05 | 6.04e-05 ± 1.4e-05 |  |  |  |  | 
AUAAAAGCGCCAGAACUACAGAAAUGUAGUUGACGAGGAGGAGGUUUAUCGGAUUUUCGGCGGAAGCCUCCAAA [A52G U65A] | 0.00041 ± 0.00018 | 0.00028 ± 4.3e-05 | 6.01e-05 ± 1.2e-05 | 0.000103 ± 1.6e-05 |  |  | 
AUAAAGGCGCCAGAACUACAGAAAUGUAGUUGACGAGGAGGAGGUUUAUCGAAUUUUCGGCGGAUGCUUCCAAA [A6G C68U] | 0.000115 ± 2.9e-06 | 0.000107 ± 1e-05 | 5.56e-05 ± 1.1e-05 | 8.68e-05 ± 1.5e-05 | 728 ± 79 |  | 
AUAAAAGCGCCAGAACUACAGAAAUGUAUUUGACGAGGAGGAGGUUUAUCGAACUUUCGGCGGAUGCCUCCAAA [G29U U54C] | 0.00486 ± 0.0013 | 0.00596 ± 0.0013 | 0.00146 ± 0.00023 | 0.00249 ± 0.00049 | 1540 ± 590 | 0.000157 ± 3.1e-05 | 0.000421 ± 6.8e-05
AUAAAAGCGCCAGAACUACAGAAAUGUAGUUGACGAGGAGGACGUUUAUCGAAUUUUCGGCGGAUGCAUCCAAA [G43C C68A] | 1.06e-05 ± 2.2e-06 |  |  |  |  | < 1e-05 | 
AUAAAAGCGCCAGAACUACAGAAAUGUAGUUGACGAGGAGGAGGUAUAUCGAAUUUUCGGCGGAUGCCCCCAAA [U46A U69C] | 0.00197 ± 0.00058 | 0.00162 ± 0.00027 | 0.00073 ± 0.00012 | 0.00122 ± 0.00015 | 1590 ± 770 | 9.53e-05 ± 1.9e-05 | 0.000133 ± 2.7e-05
AUAAAAGCGCCAGAACUACAGAAAUGUAGUUGACGAAGAGGAGGUUUAUCGAAUUUUCGGCAGAUGCCUCCAAA [G37A G62A] | < 1e-05 | < 1e-05 | < 1e-05 |  |  | < 1e-05 | 
AUAAAAGCGCCAGAACUACAGAAAUGUAGUUGACGAGGCGGAGGUUUCUCGAAUUUUCGGCGGAUGCCUCCAAA [A39C A48C] | 7.62e-05 ± 2.8e-06 | 5.69e-05 ± 9.4e-06 |  | 3.1e-05 ± 1.1e-05 | 3440 ± 350 |  | 
AUAAAAGCGCCAGCACUACAGAAAUGUAGUUGACGAGGAGGAGGUUUAUCGAAUUUUCGGCGGAUGCAUCCAAA [A14C C68A] | 2.76e-05 ± 9.8e-06 |  |  | 3.95e-05 ± 1.8e-05 |  |  | 
AUAAAAGCGCCAGAACUACAGAAAUGUAGUAGACGAGGAGGAGGUUUAUCGAAUUUUCGGCGGAAGCCUCCAAA [U31A U65A] | 0.00266 ± 0.00015 | 0.00191 ± 0.00022 | 0.000399 ± 5.4e-05 | 0.00107 ± 0.00022 | 3820 ± 350 | 2.41e-05 ± 1.1e-05 | 9.46e-05 ± 3.5e-05
AUAAAAGCGCCAGAUCUACAGAAAUGUAGUUGACGAGGAGGAGGUUUAUCGAAUUUUCGGCGGAUACCUCCAAA [A15U G66A] | 0.00705 ± 0.002 | 0.00391 ± 0.00065 | 0.000781 ± 0.00023 | 0.00183 ± 0.00057 | 7800 ± 2800 | 4.82e-05 ± 1.6e-05 | 0.000124 ± 2.4e-05
AUAAAAGCGGCAGAACUACAGAAAUGUAGUUGACGAGGAGGAGGUUUAUCGAAUUUUCGGCCGAUGCCUCCAAA [C10G G62C] | < 1e-05 |  |  |  |  |  | 
AUAAAAGCGCCAAAACUACAGAAAUGUAGUUGACGAGGAGGAGGUUUAUCGAAUCUUCGGCGGAUGCCUCCAAA [G13A U55C] | 0.000582 ± 0.00014 | 0.000492 ± 4.8e-05 | 0.000123 ± 1.6e-05 | 0.000191 ± 3.5e-05 | 2910 ± 1300 |  | 3.73e-05 ± 1.6e-05
AUAAAAGCGCCAGAACUACAGAAAUGUAGUUGACGAGGAGGAGGUUUAUCGAGUUUUCUGCGGAUGCCUCCAAA [A53G G59U] | 2.73e-05 ± 4.3e-06 | 2.45e-05 ± 7.8e-06 |  | 2.98e-05 ± 1.2e-05 |  |  | 
AUAAAAGCGUCAGAACUACAGAAAUGUAGUUGACGGGGAGGAGGUUUAUCGAAUUUUCGGCGGAUGCCUCCAAA [C10U A36G] | < 1e-05 | < 1e-05 | < 1e-05 |  |  | < 1e-05 | 
AUAAAAGCGCCAGAACUACAGAAAUGUAGUUGACGAGGAGGAGGUUUAUCGAAUUUUCGGCGGAAGGCUCGAAA [U65A C67G C71G] | 2.24e-05 ± 6.2e-06 |  |  |  |  |  | 
AUAAAAGCGCCAGAACUACAGAAAUGUACUCGACGAGGAGGAGGUUUAUCGAAUUUUCGGCGGAUGCCUCCAAA [G29C U31C] | 0.000387 ± 3.9e-05 | 0.000284 ± 4.2e-05 | 5.78e-05 ± 1.8e-05 | 0.000184 ± 3.4e-05 | 3280 ± 690 |  | 
AUAAAAGCGCCAGGACUACAGAAAUGUAGUUGACGAGGAGGAGGUUUAUCGAAUUUUCGGCGGAUUCCUCCAAA [A14G G66U] | 0.00542 ± 0.00096 | 0.00464 ± 0.0004 | 0.00094 ± 0.00012 | 0.00287 ± 0.00033 | 2220 ± 560 | 0.000114 ± 1.2e-05 | 0.00039 ± 4e-05
